± gives the uncertainty stated by the source.

This data set can be described thus: self-splicing fitness, log relative to wild type (ln ratio); higher = more splicing; Tetrahymena group I intron in knt gene, E. coli kanamycin selection, DiMSum; sequences stand for … in CUCUCU…GGAGGGAAAAGUUAUCAGGCAUGCACCUGGUAGCUAGUCUUUAAACCAAUAGAUUGCAUCGGUUUAAAAGGCAAGACCGUCAAAUUGCGGGAAAGGGGUCAACAGCCGUUCAGUACCAAGUCUCAGGGGAAACUUUGAGAUGGCCUUGCAAAGGGUAUGGUAAUAAGCUGACGGACAUGGUCCUAACCACGCAGCCAAGUCCUAAGUCAACAGAUCUUCUGUUGAUAUGGAUGCAGUUCACAGACUAAAUGUCGGUCGGGGAAGAUGUAUUCUUCUCAUAAGAUAUAGUCGGACCUCUCCUUAAUGGGAGCUAGCGGAUGAAGUGAUGCAACACUGGAGCCGCUGGGAACUAAUUUGUAUGCGAAAGUAUAUUGAUUAGUUUUGGAGUACUCGUGGUCG
The essentials: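 Pooled colonies went to amplicon sequencing on an Illumina HiSeq 2500 after six replicate transformations. The plates were LB agar with 100 μg/mL carbenicillin, 50 μM IPTG and 0.2% rhamnose, with or without 25 μg/mL kanamycin, incubated overnight at 37°C or 30°C. The E. coli BL21(DE3) library had all eight P1ex-region intron nucleotides randomised, the intron placed in the knt kanamycin-resistance gene on pET-22b(+). DiMSum fitness is the error-weighted combination of replicate fold changes, kanamycin against none, normalised to wild type.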

GAGAAGCAAUAUUACGCAAU: the “self-splicing fitness (ln)” value reads like this: (30 °C) -3.12 ± 0.17; (37 °C) -1.52 ± 0.14.
The corresponding values for GAGAAGCAAUAUUACGGACG are -0.812 ± 0.12 and -0.528 ± 0.2.
As for GUUCAGCAAUAUUACGCGAA, the “self-splicing fitness (ln)” value (30 °C) is -2.26 ± 0.27 and the “self-splicing fitness (ln)” value (37 °C) was -1.82 ± 0.28.
The corresponding values for GCAAAGCAAUAUUACGCCAU are -2.9 ± 0.17 and -1.6 ± 0.22.
The corresponding values for GCUGAGCAAUAUUACGGUAG are -3.27 ± 0.24 and -3.11 ± 0.3.
For UCUAAGCAAUAUUACGGAAG the same measures were -4.81 ± 0.46 and -1.49 ± 0.17.
UAGCAGCAAUAUUACGGUUC: the “self-splicing fitness (ln)” value runs as follows: (30 °C) -3.12 ± 0.1; (37 °C) -1.89 ± 0.091.
For AGGAAGCAAUAUUACGGCGA the same measures were -0.209 ± 0.097 and -0.301 ± 0.13.
For CACCAGCAAUAUUACGACAA the same measures were -2.61 ± 0.23 and -2.73 ± 0.2.
The corresponding values for UCAAAGCAAUAUUACGUGUC are -3.25 ± 0.22 and -1.69 ± 0.19.
With UUUAAGCAAUAUUACGACGG, the “self-splicing fitness (ln)” value runs as follows: (30 °C) -0.639 ± 0.11; (37 °C) 0.382 ± 0.13.
The corresponding values for GUGCAGCAAUAUUACGUAAG are 0.0919 ± 0.087 and -0.00974 ± 0.1.
The corresponding values for CACGAGCAAUAUUACGUGAU are -3.91 ± 0.14 and -2.05 ± 0.14.
With CAGCAGCAAUAUUACGAUGU, the “self-splicing fitness (ln)” value is -4.21 ± 0.22 (30 °C) and -2.6 ± 0.15 (37 °C).
The corresponding values for GUACAGCAAUAUUACGCAAU are -2.58 ± 0.21 and -1.87 ± 0.27.
The corresponding values for AACAAGCAAUAUUACGUUGC are -2.83 ± 0.18 and -3.21 ± 0.32.
The corresponding values for GCAUAGCAAUAUUACGCCCU are -1.78 ± 0.35 and -0.121 ± 0.33.
Consider CUCCAGCAAUAUUACGUGCC, for which the “self-splicing fitness (ln)” value (30 °C) is -3.68 ± 0.33 and the “self-splicing fitness (ln)” value (37 °C) was -0.249 ± 0.27.
Consider UCAUAGCAAUAUUACGACAC, for which the “self-splicing fitness (ln)” value (37 °C) is -2.64 ± 0.29.
Turning to CAAAAGCAAUAUUACGGUAA, the “self-splicing fitness (ln)” value was -1.91 ± 0.12 (30 °C) and -1.45 ± 0.15 (37 °C).
For ACUCAGCAAUAUUACGGUUA the same measures were -0.995 ± 0.08 and -0.513 ± 0.076.
As to GUCCAGCAAUAUUACGCGCC, the “self-splicing fitness (ln)” value reads like this: (30 °C) -1.29 ± 0.11; (37 °C) -0.848 ± 0.14.
For GCAAAGCAAUAUUACGUCGG the same measures were -3.15 ± 0.19 and -1.22 ± 0.13.
The corresponding values for GCCGAGCAAUAUUACGAACU are -2.13 ± 0.3 and -0.52 ± 0.42.
Take GUAUAGCAAUAUUACGCAGU: the “self-splicing fitness (ln)” value (37 °C) was -2.33 ± 0.37.
Consider UGGCAGCAAUAUUACGAAAG, for which the “self-splicing fitness (ln)” value by setting is: (30 °C) -2.17 ± 0.14; (37 °C) -1.19 ± 0.13.
Turning to CGUAAGCAAUAUUACGAUAA, the “self-splicing fitness (ln)” value by setting is: (30 °C) -2.66 ± 0.23; (37 °C) -1.86 ± 0.24.
For the sequence ACUUAGCAAUAUUACGAUUU, the “self-splicing fitness (ln)” value (30 °C) was -0.382 ± 0.07 and the “self-splicing fitness (ln)” value (37 °C) came to 0.252 ± 0.092.
The corresponding values for UACUAGCAAUAUUACGCCGU are -2.24 ± 0.25 and -2.67 ± 0.48.
Turning to GAUGAGCAAUAUUACGGACG, the “self-splicing fitness (ln)” value (37 °C) was -1.49 ± 0.26.
With CAUUAGCAAUAUUACGACCG, the “self-splicing fitness (ln)” value turned out to be 0.0272 ± 0.082 (30 °C) and 0.169 ± 0.1 (37 °C).
The corresponding values for AAGAAGCAAUAUUACGGUCU are -0.564 ± 0.066 and -0.233 ± 0.1.
On to GCUGAGCAAUAUUACGUCUC, for which the “self-splicing fitness (ln)” value (37 °C) was -1.16 ± 0.35.
In the case of AUGGAGCAAUAUUACGUCGC, the “self-splicing fitness (ln)” value is -2.11 ± 0.47 (30 °C) and -1.78 ± 0.48 (37 °C).
UCAUAGCAAUAUUACGAGCC: where the note is “37 °C”, the “self-splicing fitness (ln)” value is -1.76 ± 0.49.
Take GUGAAGCAAUAUUACGUUAC: the “self-splicing fitness (ln)” value was -2.88 ± 0.11 (30 °C) and -1.52 ± 0.13 (37 °C).
In the case of ACCGAGCAAUAUUACGAGGA, the “self-splicing fitness (ln)” value reads like this: (30 °C) -2.77 ± 0.21; (37 °C) -2.99 ± 0.38.
In the case of GAUUAGCAAUAUUACGAAGA, the “self-splicing fitness (ln)” value (30 °C) was -1.25 ± 0.43 and the “self-splicing fitness (ln)” value (37 °C) was -0.415 ± 0.38.
For CCAGAGCAAUAUUACGGUUG the same measures were -1.11 ± 0.089 and -1.04 ± 0.13.
For AAAGAGCAAUAUUACGUAAG, the “self-splicing fitness (ln)” value is, setting by setting: (30 °C) -3.48 ± 0.18; (37 °C) -2.57 ± 0.22.
The corresponding values for UACCAGCAAUAUUACGAAUG are -0.839 ± 0.055 and -0.00427 ± 0.073.
For the sequence CCCAAGCAAUAUUACGAUAG, the “self-splicing fitness (ln)” value is -2.95 ± 0.16 (30 °C) and -2.54 ± 0.22 (37 °C).
Regarding UGAUAGCAAUAUUACGUUCU, the “self-splicing fitness (ln)” value (30 °C) was -1.68 ± 0.11 and the “self-splicing fitness (ln)” value (37 °C) amounted to 0.264 ± 0.11.
Turning to GCCAAGCAAUAUUACGCUGU, the “self-splicing fitness (ln)” value was -2.26 ± 0.12 (30 °C) and -1.36 ± 0.13 (37 °C).
For ACACAGCAAUAUUACGGAGA the same measures were -4.21 ± 0.21 and -2.23 ± 0.14.
The corresponding values for AGUUAGCAAUAUUACGAUUG are -3.3 ± 0.27 and -1.84 ± 0.24.
The corresponding values for UCCUAGCAAUAUUACGCCGU are -1.83 ± 0.26 and -0.887 ± 0.24.
UAAGAGCAAUAUUACGUCCU: the “self-splicing fitness (ln)” value (37 °C) was -2.49 ± 0.45.
Regarding ACCCAGCAAUAUUACGUGGC, the “self-splicing fitness (ln)” value was -2.83 ± 0.13 (30 °C) and -1.69 ± 0.11 (37 °C).
The corresponding values for UCAGAGCAAUAUUACGAAGG are -2.15 ± 0.085 and -1.84 ± 0.12.
The corresponding values for AAAUAGCAAUAUUACGACGG are -0.995 ± 0.1 and -0.783 ± 0.16.
For UUCCAGCAAUAUUACGUAGU the same measures were -1.32 ± 0.093 and -1.57 ± 0.12.
For the sequence CGUGAGCAAUAUUACGCACC, under “30 °C”, the “self-splicing fitness (ln)” value was -1.07 ± 0.23.
In the case of AUUGAGCAAUAUUACGGAUA, the “self-splicing fitness (ln)” value by setting is: (30 °C) -2.15 ± 0.28; (37 °C) -1.57 ± 0.25.
The corresponding values for UGGGAGCAAUAUUACGGCCU are -2.18 ± 0.16 and -1.9 ± 0.2.
For UAGCAGCAAUAUUACGGUGC the same measures were -2.2 ± 0.22 and -3.51 ± 0.42.
For GUCCAGCAAUAUUACGCGUA the same measures were -0.0475 ± 0.068 and 0.185 ± 0.07.
For UAAUAGCAAUAUUACGUGGU, the “self-splicing fitness (ln)” value was -4.96 ± 0.28 (30 °C) and -2.75 ± 0.15 (37 °C).
The corresponding values for AUUCAGCAAUAUUACGGGAU are -4.6 ± 0.27 and -2.32 ± 0.2.
For AAAUAGCAAUAUUACGCACG the same measures were -1.59 ± 0.13 and -0.271 ± 0.12.
Take CGUCAGCAAUAUUACGUCUA: the “self-splicing fitness (ln)” value runs as follows: (30 °C) -0.831 ± 0.13; (37 °C) -0.968 ± 0.17.
Regarding UAUUAGCAAUAUUACGCAUU, the “self-splicing fitness (ln)” value (30 °C) was -2.09 ± 0.15 and the “self-splicing fitness (ln)” value (37 °C) was -1.48 ± 0.17.
